Experimental data taken from patent publication US20080044360A1 (COLLAGEN MEDICAL, published 2008).
Bridge positions count the residues as written; N and C are the ends. Square brackets hold non-standard residues; d marks the D form. Primed or numbered codes have the meaning given here. Ends that are not written are not given here. Tyr(3-NO2) = N[C@@H](Cc1ccc(O)c([N+](=O)[O-])c1)C(=O)O; Phe(4-tBu) = CC(C)(C)c1ccc(C[C@H](N)C(=O)O)cc1; Tyr(3-Cl) = N[C@@H](Cc1ccc(O)c(Cl)c1)C(=O)O; Phe(4-NH2) = Nc1ccc(C[C@H](N)C(=O)O)cc1; 1,4 AMB(Gd^T) = not defined here; Gd^G = not defined here; Gd^T = not defined here; Gd^T″ = GdDTPA-thiourea

Key:
[1] = target: T1, human collagen type I, acid soluble, extracted from placenta (Sigma C7774) (human, UniProt P02452 162-1218; P08123 80-1119); assay: dried collagen assay
T1 construct: tissue extract, gelled and dried in wells; also called dried human collagen; h-Collagen

[2] = target: T2, rat collagen, acid soluble, type I, rat tail (Upstate 08-115) (rat, UniProt P02454 152-1207; P02466 86-1125); assay: dried collagen assay
T2 construct: tissue extract, gelled and dried in wells; also called dried rat collagen
T2 sequence (P02454 152-1207, chain 1 of 2): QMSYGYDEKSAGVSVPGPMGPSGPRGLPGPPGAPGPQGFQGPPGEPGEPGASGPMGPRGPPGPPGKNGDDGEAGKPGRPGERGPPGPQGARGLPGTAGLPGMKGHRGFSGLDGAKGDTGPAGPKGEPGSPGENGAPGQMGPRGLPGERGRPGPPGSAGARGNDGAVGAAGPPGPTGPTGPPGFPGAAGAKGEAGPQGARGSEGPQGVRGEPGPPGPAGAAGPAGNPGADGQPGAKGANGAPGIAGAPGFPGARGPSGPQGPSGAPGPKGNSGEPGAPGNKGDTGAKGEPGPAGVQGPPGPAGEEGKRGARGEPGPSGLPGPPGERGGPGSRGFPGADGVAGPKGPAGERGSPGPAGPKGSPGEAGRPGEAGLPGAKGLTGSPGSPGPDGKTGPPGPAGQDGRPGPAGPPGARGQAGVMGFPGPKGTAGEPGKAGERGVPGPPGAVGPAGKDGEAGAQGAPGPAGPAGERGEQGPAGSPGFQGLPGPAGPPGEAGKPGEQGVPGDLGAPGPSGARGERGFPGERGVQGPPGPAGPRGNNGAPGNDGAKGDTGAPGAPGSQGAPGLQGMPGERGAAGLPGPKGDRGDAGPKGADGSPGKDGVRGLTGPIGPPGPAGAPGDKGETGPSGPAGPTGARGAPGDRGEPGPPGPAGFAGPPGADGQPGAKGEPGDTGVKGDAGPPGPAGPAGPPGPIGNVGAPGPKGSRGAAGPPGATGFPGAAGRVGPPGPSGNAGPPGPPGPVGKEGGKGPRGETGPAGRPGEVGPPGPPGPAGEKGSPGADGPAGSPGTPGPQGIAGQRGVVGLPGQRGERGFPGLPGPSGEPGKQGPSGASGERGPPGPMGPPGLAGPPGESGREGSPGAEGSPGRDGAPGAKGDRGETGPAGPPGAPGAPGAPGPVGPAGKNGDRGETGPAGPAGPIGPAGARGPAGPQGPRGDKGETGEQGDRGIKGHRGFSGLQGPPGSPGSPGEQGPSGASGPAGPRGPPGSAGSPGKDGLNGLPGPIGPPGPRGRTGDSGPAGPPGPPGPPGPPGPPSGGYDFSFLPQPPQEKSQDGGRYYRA
T2 sequence (P02466 86-1125, chain 2 of 2): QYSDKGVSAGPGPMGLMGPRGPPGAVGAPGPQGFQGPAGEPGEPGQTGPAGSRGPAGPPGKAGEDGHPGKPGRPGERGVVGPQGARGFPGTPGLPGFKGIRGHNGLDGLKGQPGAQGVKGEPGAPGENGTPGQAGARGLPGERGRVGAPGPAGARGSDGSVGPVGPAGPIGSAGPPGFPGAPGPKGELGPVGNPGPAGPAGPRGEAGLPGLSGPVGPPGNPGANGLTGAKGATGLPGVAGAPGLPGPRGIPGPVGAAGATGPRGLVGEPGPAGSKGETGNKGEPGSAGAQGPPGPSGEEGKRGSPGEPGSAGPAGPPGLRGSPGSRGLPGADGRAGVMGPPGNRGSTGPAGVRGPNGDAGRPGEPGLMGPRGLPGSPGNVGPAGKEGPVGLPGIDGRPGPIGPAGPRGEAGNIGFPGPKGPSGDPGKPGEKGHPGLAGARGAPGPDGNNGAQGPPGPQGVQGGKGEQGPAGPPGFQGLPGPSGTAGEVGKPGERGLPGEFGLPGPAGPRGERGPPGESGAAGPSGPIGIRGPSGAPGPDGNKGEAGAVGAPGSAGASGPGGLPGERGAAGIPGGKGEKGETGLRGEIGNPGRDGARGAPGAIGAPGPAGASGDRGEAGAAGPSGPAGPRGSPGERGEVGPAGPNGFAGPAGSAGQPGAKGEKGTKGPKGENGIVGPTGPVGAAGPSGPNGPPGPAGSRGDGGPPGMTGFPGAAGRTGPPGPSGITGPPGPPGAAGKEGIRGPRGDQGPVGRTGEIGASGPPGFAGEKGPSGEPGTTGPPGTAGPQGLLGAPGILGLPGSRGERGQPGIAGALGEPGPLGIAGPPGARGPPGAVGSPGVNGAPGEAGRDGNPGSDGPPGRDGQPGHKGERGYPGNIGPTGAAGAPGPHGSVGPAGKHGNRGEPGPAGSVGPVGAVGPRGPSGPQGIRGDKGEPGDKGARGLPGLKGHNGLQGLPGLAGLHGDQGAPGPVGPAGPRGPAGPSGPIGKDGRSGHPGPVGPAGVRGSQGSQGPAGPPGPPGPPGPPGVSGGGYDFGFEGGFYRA

T1 sequence (P02452 162-1218 limits assumed, chain 1 of 2): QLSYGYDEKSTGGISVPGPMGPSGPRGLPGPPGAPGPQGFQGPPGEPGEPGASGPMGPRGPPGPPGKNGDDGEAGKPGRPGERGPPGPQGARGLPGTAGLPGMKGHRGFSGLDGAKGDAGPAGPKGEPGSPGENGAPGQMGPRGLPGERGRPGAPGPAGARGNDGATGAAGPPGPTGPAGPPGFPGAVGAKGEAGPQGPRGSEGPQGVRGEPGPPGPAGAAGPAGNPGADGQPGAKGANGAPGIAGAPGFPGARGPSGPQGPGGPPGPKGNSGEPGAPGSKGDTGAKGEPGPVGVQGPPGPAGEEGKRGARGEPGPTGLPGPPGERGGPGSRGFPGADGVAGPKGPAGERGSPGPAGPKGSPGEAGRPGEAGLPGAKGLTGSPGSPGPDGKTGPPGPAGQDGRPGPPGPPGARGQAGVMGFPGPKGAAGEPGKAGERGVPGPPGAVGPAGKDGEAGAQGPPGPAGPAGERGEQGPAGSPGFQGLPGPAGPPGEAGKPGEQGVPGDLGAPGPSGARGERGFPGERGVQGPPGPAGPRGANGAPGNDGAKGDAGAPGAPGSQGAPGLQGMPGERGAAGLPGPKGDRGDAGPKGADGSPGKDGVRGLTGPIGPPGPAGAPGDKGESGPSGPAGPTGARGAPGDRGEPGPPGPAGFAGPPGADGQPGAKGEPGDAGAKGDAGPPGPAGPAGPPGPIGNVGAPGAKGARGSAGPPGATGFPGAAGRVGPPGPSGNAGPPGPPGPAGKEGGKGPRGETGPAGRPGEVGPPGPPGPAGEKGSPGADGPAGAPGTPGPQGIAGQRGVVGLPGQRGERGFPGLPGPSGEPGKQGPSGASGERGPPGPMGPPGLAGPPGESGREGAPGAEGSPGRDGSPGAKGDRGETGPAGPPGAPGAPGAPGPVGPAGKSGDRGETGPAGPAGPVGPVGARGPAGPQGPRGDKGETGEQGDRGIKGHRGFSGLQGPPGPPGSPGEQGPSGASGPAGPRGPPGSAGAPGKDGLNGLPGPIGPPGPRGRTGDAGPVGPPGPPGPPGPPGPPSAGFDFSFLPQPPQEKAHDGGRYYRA
T1 sequence (P08123 80-1119 limits assumed, chain 2 of 2): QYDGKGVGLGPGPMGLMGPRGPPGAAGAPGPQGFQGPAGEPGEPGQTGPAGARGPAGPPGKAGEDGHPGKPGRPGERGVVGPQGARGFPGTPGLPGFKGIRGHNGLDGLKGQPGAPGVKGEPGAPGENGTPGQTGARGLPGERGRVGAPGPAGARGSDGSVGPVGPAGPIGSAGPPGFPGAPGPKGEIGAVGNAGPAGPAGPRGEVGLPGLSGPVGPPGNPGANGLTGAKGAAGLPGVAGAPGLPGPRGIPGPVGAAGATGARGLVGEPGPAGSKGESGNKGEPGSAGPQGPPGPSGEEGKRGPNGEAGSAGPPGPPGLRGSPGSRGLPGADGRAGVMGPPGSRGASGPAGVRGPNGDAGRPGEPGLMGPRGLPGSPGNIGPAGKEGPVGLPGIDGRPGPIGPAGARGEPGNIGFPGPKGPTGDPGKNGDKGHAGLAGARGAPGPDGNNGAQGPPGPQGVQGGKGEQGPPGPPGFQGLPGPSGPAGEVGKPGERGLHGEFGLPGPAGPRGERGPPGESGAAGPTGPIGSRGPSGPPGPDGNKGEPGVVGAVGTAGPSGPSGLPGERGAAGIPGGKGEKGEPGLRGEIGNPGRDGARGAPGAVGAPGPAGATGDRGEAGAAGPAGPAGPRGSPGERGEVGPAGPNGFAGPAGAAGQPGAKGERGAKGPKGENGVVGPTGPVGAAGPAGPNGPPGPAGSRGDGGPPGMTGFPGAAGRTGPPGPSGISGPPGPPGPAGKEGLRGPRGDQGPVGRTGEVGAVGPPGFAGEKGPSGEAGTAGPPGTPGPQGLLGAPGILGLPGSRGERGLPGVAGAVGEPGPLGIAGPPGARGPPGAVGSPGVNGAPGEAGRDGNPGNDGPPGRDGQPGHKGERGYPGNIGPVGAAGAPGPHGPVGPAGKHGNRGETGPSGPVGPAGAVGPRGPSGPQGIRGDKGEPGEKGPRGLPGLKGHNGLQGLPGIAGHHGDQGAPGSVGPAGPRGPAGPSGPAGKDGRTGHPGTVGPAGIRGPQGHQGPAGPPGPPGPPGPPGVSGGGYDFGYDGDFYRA

Row | % bound [1] | % bound [2] | Binder
1 | 47% | 38% | {Gd^T}-GQWHCTTRYPHHYCLYG (disulfide 5-14 (inferred); not fully specified (C-terminus); reading uncertain) [Compound ID 859]
2 | 64% | 50% | {Gd^T}-GQWHCTTRFPHH[dY]CLYG (disulfide 5-14 (inferred); not fully specified (C-terminus); reading uncertain) [Compound ID 864]
3 | 30% | 17% | {Gd^T}-GQWHCTTRFPAHYCLYG (disulfide 5-14 (inferred); not fully specified (C-terminus); reading uncertain) [Compound ID 865]
4 | 60% | 38% | {Gd^T}-G[dQ]WHCTTRFPHHYCLYG (disulfide 5-14 (inferred); not fully specified (C-terminus); reading uncertain) [Compound ID 866]
5 | 30% | 28% | {Gd^T″}-GQWSCTTRFPHHYCLYG (disulfide 5-14 (inferred)) [Compound ID 870]
6 | 48% | 26% | {Gd^T″}-GQWACTTRFPHHYCLYG (disulfide 5-14 (inferred)) [Compound ID 876]
7 | 58% | 41% | {Gd^T″}-GQWHCATRFPHHYCLYG (disulfide 5-14 (inferred)) [Compound ID 877]
8 | 33% | 0% | {Gd^T″}-GQWHCT[dT]RFPHHYCLYG (disulfide 5-14 (inferred)) [Compound ID 879]
9 | 30% | 0% | {Gd^T″}-GQWHCTTRFPSHYCLYG (disulfide 5-14 (inferred)) [Compound ID 880]
10 | 24% | 15% | {Gd^T″}-GQWHCTTD[Phe(4-NH2)]PHHYCLYG (disulfide 5-14 (inferred)) [Compound ID 884]
11 | 38% | 15% | {Gd^T″}-GQWHCTTDFPHHYCLFG (disulfide 5-14 (inferred)) [Compound ID 890]
12 | 63% | 56% | {Gd^T″}-GQWHCTTDFPHHYCL[Tyr(3-Cl)]G (disulfide 5-14 (inferred)) [Compound ID 892]
13 | 20% | 14% | {Gd^T″}-GQWHCT[dY]RFPHHYCLYG (disulfide 5-14 (inferred); not fully specified (C-terminus)) [Compound ID 899]
14 | 20% | 0% | {Gd^T″}-GAWHCTTLFPHH[dY]CLYG (disulfide 5-14 (inferred); not fully specified (C-terminus)) [Compound ID 908]
15 | 13% | 0% | {Gd^T″}-GDWHCTTLFPHH[dY]CLYG (disulfide 5-14 (inferred); not fully specified (C-terminus)) [Compound ID 910]
16 | 15% | 0% | {Gd^T″}-GSWHCTTLFPHH[dY]CLYG (disulfide 5-14 (inferred); not fully specified (C-terminus)) [Compound ID 911]
17 | 15% | 0% | {Gd^T″}-GAWHCTTYFPHH[dY]CLYG (disulfide 5-14 (inferred); not fully specified (C-terminus)) [Compound ID 915]
18 | 12% | 0% | {Gd^T″}-GQWHCTTIFPHH[dY]CLYG (disulfide 5-14 (inferred); not fully specified (C-terminus)) [Compound ID 917]
19 | 67% | 91% | GQWHCYTLFPHHYCLYG (disulfide 5-14 (inferred); not fully specified (N-terminus)) [Compound ID 920]
20 | 68% | 35% | {Gd^T″}-GQWHCTYLFPHHYCLYG (disulfide 5-14 (inferred)) [Compound ID 921]

Second part, the binder before the results:

Row | Binder | % bound [1] | % bound [2]
21 | {Gd^G}-DWTCS[dR]DEYTWHCNYE (disulfide 4-13 (inferred); not fully specified (C-terminus); reading uncertain) [Compound ID 821] | 56% | 29%
22 | {Gd^G}-DWTCRGDEYTWHCNYE (disulfide 4-13 (inferred); not fully specified (C-terminus); reading uncertain) [Compound ID 822] | 47% | 20%
23 | {Gd^T″}-DWTC[Tyr(Bn,3-Cl)]GDEYTWHCNYE (disulfide 4-13 (inferred); not fully specified (C-terminus)) [Compound ID 825] | 61% | 63%
24 | {Gd^T″}-DWTC[Phe(4-tBu)]GDEYTWHCNYE (disulfide 4-13 (inferred); not fully specified (C-terminus)) [Compound ID 827] | 41% | 20%
25 | {Gd^T″}-DWTCS[dY]DEYTWHCNYE (disulfide 4-13 (inferred); not fully specified (C-terminus)) [Compound ID 829] | 20% | 21%
26 | {Gd^T}-DWTCSGDEYTWYCNYE (disulfide 4-13 (inferred); not fully specified (C-terminus); reading uncertain) [Compound ID 842] | 23% | 9%
27 | {Gd^T}-DWTC[Tyr(3-NO2)]GDEYTWHCNYE (disulfide 4-13 (inferred); not fully specified (C-terminus); reading uncertain) [Compound ID 843] | 55% | 36%
28 | {Gd^T}-DWTCYGDEYTWHCNYE (disulfide 4-13 (inferred); not fully specified (C-terminus); reading uncertain) [Compound ID 844] | 68% | 48%
29 | {Gd^T}-DWTCSGDEYRWHCNYE (disulfide 4-13 (inferred); not fully specified (C-terminus); reading uncertain) [Compound ID 845] | 36% | 10%
30 | {Gd^T″}-GQWHCTTYFPHHYCLYG-{1,4 AMB(Gd^T)} (disulfide 5-14 (inferred); reading uncertain) [Compound ID 816] | 48% | 48%
31 | {Gd^T″}-K(Gd^T″)K(Gd^T″)WHCYTYFPHHYCVYG (disulfide 5-14 (inferred); not fully specified (C-terminus)) [Compound ID 801] | 81% | 77%
32 | {Gd^T″}-GQWHCTTK(Gd^T″)FPHHYCLYG (disulfide 5-14 (inferred); not fully specified (C-terminus)) [Compound ID 813] | 65% | 55%
33 | {Gd^T″}-GQWHCTTRFPHHYCK(Gd^T″)YG (disulfide 5-14 (inferred); not fully specified (C-terminus)) [Compound ID 815] | 66% | 59%
34 | {Gd^T}-GQWHCTTDFPHHYCLYG (disulfide 5-14 (inferred); not fully specified (C-terminus); reading uncertain) [Compound ID 851] | 50% | 41%
35 | {Gd^T}-GQWHCTTAFPHHYCLYG (disulfide 5-14 (inferred); not fully specified (C-terminus); reading uncertain) [Compound ID 853] | 66% | 57%
36 | {Gd^T}-GQWHCTTRFPHHYCAYG (disulfide 5-14 (inferred); not fully specified (C-terminus); reading uncertain) [Compound ID 855] | 27% | 15%
37 | {Gd^T}-GAWHCTTRFPHHYCLYG (disulfide 5-14 (inferred); not fully specified (C-terminus); reading uncertain) [Compound ID 857] | 67% | 69%
